The target of test [1] is mouse IgG (mouse). Description: sandwich immunoassay (SAM + primary Ab + mouse IgG + Ab-AP) on an Au-coated silicon wafer macrochip; CV of PAPR; antigen concentration not stated.
The target of test [2] is mouse IgG (mouse). The test can be described thus: sandwich immunoassay (SAM + primary Ab + mouse IgG + Ab-AP) on an Au-coated LTCC macrochip, not sonicated; CV of PAPR; antigen concentration not stated.
Test [3] deals with mouse IgG (mouse). The test can be described thus: sandwich immunoassay (SAM + primary Ab + mouse IgG + Ab-AP) on an Au-coated LTCC macrochip, sonicated for 2 min; CV of PAPR; antigen concentration not stated.

Consider “secondary antibody (to mouse IgG) conjugated to alkaline phosphatase”, for which the signal is 27.7 Acm^-2 with mouse IgG (mouse) [1], 34.6 Acm^-2 with mouse IgG (mouse) [2] and 30 Acm^-2 with mouse IgG (mouse) [3].

The record behind these values is US20030108922A1.
